In patent publication US10538591B2, “Anti-fibulin-3 antibodies and uses thereof” (THE BRIGHAM AND WOMEN'S HOSPITAL, INC., priority 2014, dated 2020):
Entries after “also recorded” stand apart in the source; their conditions may differ.

Columns and labels:
Normal human astrocytes = experiment: Viability of normal human astrocytes; assay type: cell-based; details: mAb428.2, conditions not given
Description: Normal human astrocytes and glioma cell lines (U251MG, U87MG and CNS1) were cultured as adherent cells in 96-well plates (10,000 cells/well). Three primary cultures of glioma-initiating cells (GBM8, GBM9 and GBM34) were cultured in suspension using appropriate medium in 96-well plates (25,000 cells/well). All cells were exposed to anti-Fib3/911 (50 μg/mL) or its pre-immune serum for 72 h, followed by measurement of cell viability as indicated in FIG. 5. […] In contrast, normal astrocytes were not affected by the antibody (** p<0.01; *** p<0.001, one-way ANOVA for each cell line)
Antibodies against fibulin-3 induce cytotoxicity in a wide range of glioma cells but not in normal cells. […] This antibody was added to cultures of different glioma cell lines (U251MG, U87MG, CNS1) as well as cultures of glioma initiating cells that produce large amounts of fibulin-3 (GBM8, GBM9, GBM34). […] Vehicle control (PBS) and the pre-immune serum of anti-fibulin-3/91I were tested as controls. Cell viability was measured after 72 hours. […] Neither the vehicle nor the pre-immune serum affected cell viability (FIG. 7).

fibulin-4 = biological target: T1, fibulin-4 (Homo sapiens, UniProt O95967); experiment: Cross-reactivity against homologous fibulin-4; assay type: binding
T1 sequence (O95967 24-443): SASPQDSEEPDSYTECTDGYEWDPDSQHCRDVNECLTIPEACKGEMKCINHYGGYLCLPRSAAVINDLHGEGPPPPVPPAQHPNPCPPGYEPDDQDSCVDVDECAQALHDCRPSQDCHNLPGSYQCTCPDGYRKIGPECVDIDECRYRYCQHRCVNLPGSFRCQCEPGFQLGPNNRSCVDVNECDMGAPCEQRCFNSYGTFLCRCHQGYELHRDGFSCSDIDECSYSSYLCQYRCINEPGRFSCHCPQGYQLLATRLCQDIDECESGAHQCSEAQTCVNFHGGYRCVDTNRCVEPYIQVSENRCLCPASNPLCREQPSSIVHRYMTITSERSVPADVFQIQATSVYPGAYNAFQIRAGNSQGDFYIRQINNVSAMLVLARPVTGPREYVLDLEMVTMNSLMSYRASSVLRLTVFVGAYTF

[1] = system: fibulin-3-induced Notch signaling; experiment: Notch-reporter luminescent assay in CNS1 glioma cells transfected with fibulin-3 cDNA; assay type: cell-based; details: for effect on fibulin-3-induced Notch activity: monoclonal antibody 100 μg/ml, 0, 2, 6 and 24 h
Description: Glioma cells (CNS I line) carrying a Notch-reporter luminescent system were transfected with fibulin-3 cDNA (or a control plasmid) and incubated in serum-free conditions for 24 h.
Antibodies against fibulin-3 block the molecular mechanism triggered by this protein. To confirm whether the cytotoxic effects were related to specific inhibition of the molecular mechanisms of fibulin-3, the antibody anti-Fib3/911 was added to glioma cells (CNS1 cell line) that had been transfected to overexpress fibulin-3. Overexpression of fibulin-3 in the glioma cells increased Notch signaling activity as expected.
Glioma cells (CNS1 line) carrying a Notch-driven luminescent reporter system were transfected with fibulin-3 cDNA (Fib3 OE) or a control plasmid (Control) and incubated in serum-free conditions for 24 h. The following day the antibodies anti-Fib3/911 (50 μg/ml) or mAb428.3C11 (100 μg/ml) were added to the cultures and Notch activity was measured after 0, 2, 6, and 24 h.
Glioma cells (CNS1 line) carrying a Notch-driven luminescent reporter system were transfected with fibulin-3 cDNA (Fib3 OE) or a control plasmid (Control) and incubated in serum-free conditions for 24 h. Results on the left panel show the effect of adding mAb428.2 (100 μg/ml), followed by measurement of Notch activity after 0, 2, 6, and 24 h. Results on the right panel show the effect of adding variable concentrations of mAb428.2 (0, 5, 10, 25, 50, and 100 μg/ml), followed by measurement of Notch activity after 6 h.

fibulin-5 = biological target: T2, fibulin-5 (Homo sapiens, UniProt Q9UBX5); experiment: Cross-reactivity against homologous fibulin-5; assay type: binding
T2 sequence (Q9UBX5 24-448): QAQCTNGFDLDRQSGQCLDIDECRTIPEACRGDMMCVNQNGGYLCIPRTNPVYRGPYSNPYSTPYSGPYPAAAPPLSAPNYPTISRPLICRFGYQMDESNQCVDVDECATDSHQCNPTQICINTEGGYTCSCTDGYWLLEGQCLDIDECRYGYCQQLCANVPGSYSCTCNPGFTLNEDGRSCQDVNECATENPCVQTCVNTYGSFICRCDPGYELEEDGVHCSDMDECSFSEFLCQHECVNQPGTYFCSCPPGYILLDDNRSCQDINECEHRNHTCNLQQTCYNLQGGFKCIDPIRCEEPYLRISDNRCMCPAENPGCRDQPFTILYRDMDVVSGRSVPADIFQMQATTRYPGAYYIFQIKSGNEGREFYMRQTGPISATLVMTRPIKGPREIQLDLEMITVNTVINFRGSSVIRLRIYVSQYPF

[2] = system: Notch signaling induced by fibulin-3; experiment: Notch reporter in ARPE19 retinal pigmented epithelial cells; assay type: cell-based, human; details: 100 μg/ml, 0, 2, 4, 6 and 24 h
Description: Cells were co-transfected with plasmids carrying fibulin-3 cDNA (Fib3 OE) or a control cDNA (Control) and incubated in serum-free conditions for 24 h (FIG. 18). The following day mAb428.3C11 (100 μg/ml) was added to the cultures and Notch (left panel) or NF-kB (right panel) signaling activities were measured after 0, 2, 4, 6, and 24 h. […] The inhibitory effect caused by the antibody on control reporter signaling (black dots) may have been caused by blocking of endogenous fibulin-3 that is highly expressed by ARPE19 cells.

[3] = system: GBM34 glioblastoma stem cells; experiment: BrdU uptake in tumors after intravenous treatment; assay type: in vivo, mice; details: 8×30 mg/kg IV, BrdU 1 h before euthanasia
Description: Control and tumor mice studied in FIG. 11 for overall survival (treated with antibody 8×30 mg/kg, IV) were injected with 5-bromo-2′-deoxyuridine (BrdU, 50 mg/kg, IP) 1 h before euthanasia. BrdU staining of actively dividing cells. Tumors from 3 mice per group were processed for immunohistochemistry to detect BrdU uptake, corresponding to actively dividing cells. Tissue sections were imaged by fluorescence microscopy and quantified blindly using ImageJ image analysis software. DAPI was used to stain cell nuclei. Results were expressed as number of BrdU-positive cells per unit of tumor area. […] (Data not shown).

B1: mAb428.2: mouse monoclonal IgG1 kappa antibody against human fibulin-3 peptide SEQ ID NO:2; VH SEQ ID NO: 3, VL SEQ ID NO: 4 (antibody, V domains shown)
VH: QIQLVQSGPELKKPGETVKISCKASGYSFTTYGMSWVKQAPGKGLKWMGWINTYSGVPTYADDFKGRFAFFLETSASTAYLQINNLKNEDTATYFCARWVDYWGQGTTLTVSS
VL: DIKMTQSPSSMYASLGERVTITCKASQDIKSYLSWHQQKPWKSPKTLIYYATSLADGVPSRFSGSGSGQDYSLTISSLESDDTATYYCLQHGKSPYTFGGGTKLEIK
Normal human astrocytes
  effect on normal astrocytes: without effects on normal astrocytes
fibulin-4
  cross-reactivity against fibulin-4: no cross-reactivity
[1]; 0, 5, 10, 25, 50 and 100 μg/ml, 6 h, 100 μg/ml over 0-24 h
  dependence of Notch inhibition: time- and concentration-dependent
[1]
  effect on fibulin-3-induced Notch activity: blocked fibulin-3-dependent Notch activation; also recorded: strong inhibitory effect
[1]; listed as mAb428.3C11
  effect on fibulin-3-induced Notch activity: blocked
[1]; t=4 h, anti-Fib3/911 50 μg/ml, mAb428.3C11 100 μg/ml
  fibulin-3 effect on Notch activation: completely abolished fibulin-3 effects on Notch activation
[1]; t=24 h, anti-Fib3/911 50 μg/ml, mAb428.3C11 100 μg/ml
  levels of Notch activity: indistinguishable from controls
fibulin-5
  cross-reactivity against fibulin-5: no cross-reactivity
[2]
  effect on fibulin-3-induced Notch reporter activity: strong blocking effect
[3]
  tumor cell division (BrdU-positive cells per unit of tumor area): significant decrease in tumor cell division
